For this experiment, the target named is T1, mouse IP3R1 full length with C-terminal GFP (mouse, UniProt P11881 1-2749).
T1 construct: also called IP3R1-GFP; IP3R-GFP protein; not shown: C-terminal GFP of the pEGFP-N1 vector, with any linker from the cloning site
Kind of experiment: HA-matrix co-immunoprecipitation from HEK 293 cells, anti-GFP Western blot. Here is the method: Into HEK 293 cells, a full length IP3R1-GFP expression plasmid and each of the KRAP full length, the deletion mutants, or the point-mutant expression plasmids were introduced together with lipofectamine LTX (Invitrogen), respectively, and the resulting cells were incubated for 24 hours. They were then homogenized in an extracting buffer (50 mM Tris-HCl, pH7.5, 140 mM NaCl, 0.5% NP40, 0.25M NDSB-201 (Calbiochem), and protease inhibitors (Complete EDTA-free, Roche)), and the homogenized mixture was centrifuged at 15,000 rpm for 30 minutes. The resulting supernatant was then subjected to immunoprecipitation with HA matrix (Roche) to precipitate the IP3R-GFP protein binding to the KRAP protein, and the precipitated IP3R-GFP protein was detected by Western blots using a rabbit polyclonal antibody (Clonetech) as an anti-GFP antibody. In the experiment using HCT 116 cells, the presence or absence of co-precipitation of the endogenous IP3R protein was investigated without transfection of the IP3R-GFP protein using a mouse monoclonal antibody (BD Transduction Laboratory) as an anti-IP3R3 antibody.
On the technique in general: In western blotting, separated proteins are transferred to a membrane and probed.

T1 sequence (P11881 whole entry S1044R/E1045K): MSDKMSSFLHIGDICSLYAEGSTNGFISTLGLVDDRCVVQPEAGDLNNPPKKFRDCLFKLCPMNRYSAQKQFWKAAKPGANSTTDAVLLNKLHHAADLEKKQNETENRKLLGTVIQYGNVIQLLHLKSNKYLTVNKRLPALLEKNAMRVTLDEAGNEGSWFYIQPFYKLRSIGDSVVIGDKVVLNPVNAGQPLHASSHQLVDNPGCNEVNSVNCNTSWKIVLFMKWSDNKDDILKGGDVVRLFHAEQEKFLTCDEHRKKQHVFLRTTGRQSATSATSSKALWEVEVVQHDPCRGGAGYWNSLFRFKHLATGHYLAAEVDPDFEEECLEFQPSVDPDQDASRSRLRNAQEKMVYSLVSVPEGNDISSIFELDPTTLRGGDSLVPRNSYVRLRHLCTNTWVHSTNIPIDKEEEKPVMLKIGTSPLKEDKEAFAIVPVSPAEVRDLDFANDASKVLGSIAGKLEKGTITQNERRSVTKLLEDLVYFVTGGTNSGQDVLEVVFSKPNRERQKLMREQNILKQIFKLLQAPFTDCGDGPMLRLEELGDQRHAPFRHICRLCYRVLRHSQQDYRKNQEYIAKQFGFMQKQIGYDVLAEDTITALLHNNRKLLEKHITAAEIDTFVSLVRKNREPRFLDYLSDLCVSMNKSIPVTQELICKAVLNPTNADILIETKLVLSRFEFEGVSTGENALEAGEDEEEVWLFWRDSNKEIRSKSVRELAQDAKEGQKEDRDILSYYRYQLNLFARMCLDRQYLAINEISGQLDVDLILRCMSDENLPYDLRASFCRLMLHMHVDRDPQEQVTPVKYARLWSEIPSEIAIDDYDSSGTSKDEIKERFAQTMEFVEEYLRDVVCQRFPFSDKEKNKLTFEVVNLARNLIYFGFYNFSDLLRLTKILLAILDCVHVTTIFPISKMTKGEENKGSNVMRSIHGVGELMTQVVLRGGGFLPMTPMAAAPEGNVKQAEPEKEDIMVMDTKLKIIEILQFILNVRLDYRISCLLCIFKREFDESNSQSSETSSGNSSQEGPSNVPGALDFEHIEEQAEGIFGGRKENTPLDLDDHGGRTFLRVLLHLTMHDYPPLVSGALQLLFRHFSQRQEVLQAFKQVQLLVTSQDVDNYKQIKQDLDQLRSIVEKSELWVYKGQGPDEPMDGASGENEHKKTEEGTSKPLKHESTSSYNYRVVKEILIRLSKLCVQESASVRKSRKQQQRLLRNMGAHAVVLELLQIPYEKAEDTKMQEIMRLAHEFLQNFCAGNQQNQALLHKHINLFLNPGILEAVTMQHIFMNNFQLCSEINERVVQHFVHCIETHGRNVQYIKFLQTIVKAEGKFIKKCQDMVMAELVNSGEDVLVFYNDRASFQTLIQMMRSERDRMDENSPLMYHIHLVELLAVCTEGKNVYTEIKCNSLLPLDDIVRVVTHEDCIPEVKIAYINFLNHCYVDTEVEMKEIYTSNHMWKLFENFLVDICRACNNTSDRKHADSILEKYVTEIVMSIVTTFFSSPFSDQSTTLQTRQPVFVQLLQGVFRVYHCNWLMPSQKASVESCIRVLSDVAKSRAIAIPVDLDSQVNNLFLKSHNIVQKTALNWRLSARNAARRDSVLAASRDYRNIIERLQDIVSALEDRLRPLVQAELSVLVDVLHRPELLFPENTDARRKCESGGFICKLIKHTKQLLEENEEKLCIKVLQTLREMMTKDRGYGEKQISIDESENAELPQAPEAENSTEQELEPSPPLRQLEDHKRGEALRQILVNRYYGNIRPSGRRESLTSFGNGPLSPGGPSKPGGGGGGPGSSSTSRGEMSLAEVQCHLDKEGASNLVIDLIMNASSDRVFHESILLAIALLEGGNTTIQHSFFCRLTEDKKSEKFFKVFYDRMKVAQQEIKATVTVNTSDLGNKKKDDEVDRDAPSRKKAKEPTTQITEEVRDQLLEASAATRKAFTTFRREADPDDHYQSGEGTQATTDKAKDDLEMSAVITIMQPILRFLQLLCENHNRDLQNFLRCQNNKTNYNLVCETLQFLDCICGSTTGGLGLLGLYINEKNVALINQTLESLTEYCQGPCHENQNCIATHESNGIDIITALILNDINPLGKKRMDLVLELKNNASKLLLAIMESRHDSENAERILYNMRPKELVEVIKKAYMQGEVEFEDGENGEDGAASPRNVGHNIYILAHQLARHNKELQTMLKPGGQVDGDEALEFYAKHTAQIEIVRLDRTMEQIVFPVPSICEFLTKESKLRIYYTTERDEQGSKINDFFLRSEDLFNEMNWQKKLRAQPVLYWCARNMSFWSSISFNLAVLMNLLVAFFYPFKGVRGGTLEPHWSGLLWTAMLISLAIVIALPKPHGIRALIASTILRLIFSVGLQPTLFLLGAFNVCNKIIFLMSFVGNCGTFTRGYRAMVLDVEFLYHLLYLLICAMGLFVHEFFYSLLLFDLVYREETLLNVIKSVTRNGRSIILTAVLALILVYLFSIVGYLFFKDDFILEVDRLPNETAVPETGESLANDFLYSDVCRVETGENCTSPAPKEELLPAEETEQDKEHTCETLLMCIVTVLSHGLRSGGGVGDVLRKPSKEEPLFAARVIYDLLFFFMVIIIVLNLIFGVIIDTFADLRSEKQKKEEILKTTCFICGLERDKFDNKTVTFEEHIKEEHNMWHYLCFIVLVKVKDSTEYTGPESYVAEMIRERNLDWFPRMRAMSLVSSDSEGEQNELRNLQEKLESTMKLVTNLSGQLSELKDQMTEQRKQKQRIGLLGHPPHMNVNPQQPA

B1: mouse KRAP deletion mutant composed of the coiled-coil region only (988-1252), N-terminal HA tag (other)
chain: HMTEEDRYEVDQLQGLRNSVRMELQDLEMQLEERLLGLDEQLRAVRVPSPFRPSALPGMCGSRSVDNLSCPSPLNVMEPVTELMREQSYLKSELGLGLGDMAYEIPPGESSESVFSQATSESSSVCSSPSHTNRRSRGLPGSKPRARLVARKKIFRASVALTPTAPSRTGSVQTPPDLESSEEAGGAEEASPVVGLASHVEEEPEDLSLMPAAEEMHRNVEQDELQQVIREIKESIVGEIRREIVSGLLAAVASSKAPGPKQDSH
notes: not shown: N-terminal HA tag of the pCMV-HA vector
As to B1, the binding result is reported as “no binding”.

The values are drawn from patent US20120180150A1 (published 2012).
